The results in this text go back to patent US7189506B1, “DNA binding compound-mediated molecular switch system” (Genelabs Technologies, Inc.).

Series [1] concerns p50 NF-κB. As to the kind of experiment: Gel mobility shift assay, displacement of p50 NF-kB. The conditions noted are these: JF102 oligonucleotide. It is filed as binding. The source says: A purified Thioredoxin-p50 NF-kB fusion protein (p50C) (Genelabs Technologies, Inc.) was used to generate five oligonucleotides comprising an NF-kB DNA response element and one or two overlapping binding sites for the AT-rich binder, 21x.
The exemplified NF-kB binding sites, […] (SEQ ID NO:29) and […] (SEQ ID NO:30) are present in the Igk and IL-6 promoters, respectively.
Oligonucleotides JF101 (SEQ ID NO:31) and 102 (SEQ ID NO:32), have compound binding sequences overlapping the right side of the NF-kB DNA response element, while in the case of JF103 (SEQ ID NO:33), the overlaps are from both sides (FIG. 7).

The subject of series [2] is UL9-VP16 chimeric activator (ULVP) (Herpes simplex virus type 1?). As to the kind of experiment: cell_activity. The conditions noted are these: 25 ng pULVP, HeLa.
Series [3] has as its system UL9-KRAB chimeric repressor (ULKRAB) (Herpes simplex virus type 1?). As to the kind of experiment: cell_activity. Conditions: 0.8 to 1 ug pULKRAB.
The test system of series [4] is LacR. Conditions: modified LacR DNA response sequence SEQ ID NO:35.
Series [5] concerns the target T1, LacR (lac repressor) (UniProt P03023 P03023:1-360). As to the kind of experiment: EMSA; displaced by 21x. Conditions: chain copies: 4; label: 32P.
For series [6], the target named is T2, GST-UL9 (UL9 C-terminal DNA-binding domain) (Herpes simplex virus type 1?, UniProt P10193 P10193:535-851). Kind of series: EMSA; 10 nM GST-UL9, 20 mM HEPES pH 7.5, 50 mM KCl, RT; displaced by 21x. Conditions: tags: GST fusion, pGEX-UL9 (Genelabs); label: 32P.
T2 sequence (P10193 535-851, one chain of several): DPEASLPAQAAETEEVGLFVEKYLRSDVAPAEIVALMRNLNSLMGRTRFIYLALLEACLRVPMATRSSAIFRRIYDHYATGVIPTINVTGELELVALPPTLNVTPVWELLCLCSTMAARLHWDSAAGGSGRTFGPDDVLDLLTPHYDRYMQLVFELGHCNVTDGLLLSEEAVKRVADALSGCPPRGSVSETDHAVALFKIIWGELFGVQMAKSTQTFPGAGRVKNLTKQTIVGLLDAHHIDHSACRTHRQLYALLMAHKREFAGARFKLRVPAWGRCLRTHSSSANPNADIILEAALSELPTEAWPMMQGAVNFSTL
The target in series [7] is T1, LacR (lac repressor). Kind of series: EMSA; displaced by 21x more efficiently than by IPTG. The conditions noted are these: chain copies: 4; label: 32P. For orientation: A gel shift assay detects complexes by their altered migration in electrophoresis.
Series [8] addresses T2, GST-UL9 (UL9 C-terminal DNA-binding …). Kind of series: EMSA; 10 nM GST-UL9; 21x displacement most efficient with overlap at 3' end of site. The conditions noted are these: tags: GST fusion, pGEX-UL9 (Genelabs); label: 32P.

T1 sequence (P03023 whole entry, the tested form may be a part, one chain of several): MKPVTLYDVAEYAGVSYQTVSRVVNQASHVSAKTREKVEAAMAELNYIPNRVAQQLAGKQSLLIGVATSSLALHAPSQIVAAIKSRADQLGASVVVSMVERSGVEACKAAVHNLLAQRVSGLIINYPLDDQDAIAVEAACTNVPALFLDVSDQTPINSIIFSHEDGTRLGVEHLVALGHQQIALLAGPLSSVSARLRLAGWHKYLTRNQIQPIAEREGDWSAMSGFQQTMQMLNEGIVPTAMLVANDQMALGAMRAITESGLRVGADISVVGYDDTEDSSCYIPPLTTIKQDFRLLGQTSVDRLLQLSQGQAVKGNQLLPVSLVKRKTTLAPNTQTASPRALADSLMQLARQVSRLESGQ

Consider `Cn1cc(NC(=O)c2cc(NC(=O)c3cc(NC=O)cn3C)cn2C)cc1C(=O)NCCC(=N)N` [distamycin], for which, in series [1], the “NF-kB displacement efficiency, 21x versus distamycin” value is on record as 21x displaces NF-kB more efficiently than distamycin.
In the case of “p5UL/p5ULE UL9-21x response element (5 tandem repeats)”, the activity in series [2] (p5UL) was 24 fold; in series [3] (p5ULE, HeLa) it was 5 % of basal.
As for `CC(C)S[C@@H]1O[C@H](CO)[C@H](O)[C@H](O)[C@H]1O` [IPTG], in series [4], the “LacR displacement efficiency, 21x versus IPTG” value is on record as 21x appears to displace LacR more efficiently than IPTG.
Turning to “p5Gal/p5GalE GAL4 response element (5 tandem repeats)”, the activity in series [2] (p5Gal, not activated significantly) is 2 fold; in series [3] (p5GalE control), 62 % of basal.

B1: lacO modified (symmetric) (dsDNA)
DNA 1: AAAAAATTGTGAGCGCTCACAATTTTTT
DNA 2: AAAAAATTGTGAGCGCTCACAATTTTTT
With B1, the binding result in series [5] was “binds”.

B2: YK 202LX (dsDNA)
DNA 1: CATGGACGCCACTGAGCCGTTTTTGTTCGCACTTGAGGCGAGTCGATGCACC
DNA 2: GGTGCATCGACTCGCCTCAAGTGCGAACAAAAACGGCTCAGTGGCGTCCATG
As to B2, the binding result in series [6] is “binds”.

B3: lacO modified (dsDNA)
DNA 1: TTTTTTTTGTGAGCGGATAACAAAA
DNA 2: TTTTGTTATCCGCTCACAAAAAAAA
On to B3, for which, in series [7], the binding result is “binds”.

B4: YK 202RX-A (dsDNA)
DNA 1: CATGGACGCCACTGAGCCGTGTTCGCACTTTTTTTTGAGGCGAGTCGATGCACC
DNA 2: GGTGCATCGACTCGCCTCAAAAAAAAGTGCGAACACGGCTCAGTGGCGTCCATG
In the case of B4, the binding result in series [8] is given as “binds”.

B5: YK 202RX (dsDNA)
DNA 1: CATGGACGCCACTGAGCCGTTTTTGTTCGCACTTTTTTTTGAGGCGAGTCGATGCACC
DNA 2: GGTGCATCGACTCGCCTCAAAAAAAAGTGCGAACAAAAACGGCTCAGTGGCGTCCATG
Consider B5, for which, in series [8], the binding result was “binds”.
